Laboratory results: paper PMC10532227

Assays:
PARP1 = test: spFRET microscopy; details: buffer, salt, pH and temperature of binding assays not given in the material (Methods 4.4-4.7 empty)
[1] = target: fluorescently labeled mononucleosomes assembled from octamers of recombinant human histones and DNA containing the 147 bp nucleosome positioning sequence 603 (human); test: spFRET microscopy; nucleosomes N(13, 91) (1 nM; Cy3/Cy5 on nucleosomal DNA) with PARP1 (20 or 50 nM), 30 min at room temperature in TB150 buffer (20 mM Tris-HCl pH 7.9, 5 mM MgCl2, 150 mM KCl, 1 mM β-ME); then NAD+ (20 µM), 45 min; no EGCG
[2] = target: fluorescently labeled mononucleosomes assembled from octamers of recombinant human histones and DNA containing the 147 bp nucleosome positioning sequence 603 (human); test: spFRET microscopy; as a2 but nucleosomes N(13, 91) (1 nM) preincubated 15 min with EGCG (0.8 µM) before PARP1 (20 nM), or PARP1 preincubated with EGCG; TB150 buffer, room temperature; then NAD+ (20 µM), 45 min

| percent of nucleosomes in the complex at 20 nM PARP1 [1] | percent of detected particles in the EGCG–nucleosome–PARP1 complex at 20 nM PARP1 and 0.8 µM EGCG [2] | Substance | binding signal (% nucleosomes bound) (PARP1; 20 nM PARP1, no EGCG) | binding signal (% nucleosomes bound) (PARP1; 20 nM PARP1 added to nucleosomes preformed with 0.8 uM EGCG) |
| --- | --- | --- | --- | --- |
|  |  | N(13, 91) nucleosome | 65 | 67 |
| 65% | 67% | human poly(ADP-ribose) polymerase 1 fused with hexahistidine tag at the N-terminus (from UniProt P09874 1-1014) (enzyme) |  |  |
